This is an account of results in patent publication EP1073891B1, “METHOD OF PREDICTING RECEPTOR MODULATING ACTIVITY” (Duke University, priority 1998, dated 1999).

Changes are numbered by the printed parent chain.

Test in all cases: Mammalian two-hybrid with ERα AF-2 mutants (Examples 4.3, 101.3)
Type in all cases: cell-based
Holding throughout (details): mammalian two-hybrid (Fig. 9)

Experiment [1] has as its target T1, ER3X (D538N/E542Q/D545N) (Homo sapiens, UniProt P03372, D538N/D545N/E542Q).
T1 construct: expressed in transfected cells
T1 sequence (P03372 1-595 D538N/E542Q/D545N): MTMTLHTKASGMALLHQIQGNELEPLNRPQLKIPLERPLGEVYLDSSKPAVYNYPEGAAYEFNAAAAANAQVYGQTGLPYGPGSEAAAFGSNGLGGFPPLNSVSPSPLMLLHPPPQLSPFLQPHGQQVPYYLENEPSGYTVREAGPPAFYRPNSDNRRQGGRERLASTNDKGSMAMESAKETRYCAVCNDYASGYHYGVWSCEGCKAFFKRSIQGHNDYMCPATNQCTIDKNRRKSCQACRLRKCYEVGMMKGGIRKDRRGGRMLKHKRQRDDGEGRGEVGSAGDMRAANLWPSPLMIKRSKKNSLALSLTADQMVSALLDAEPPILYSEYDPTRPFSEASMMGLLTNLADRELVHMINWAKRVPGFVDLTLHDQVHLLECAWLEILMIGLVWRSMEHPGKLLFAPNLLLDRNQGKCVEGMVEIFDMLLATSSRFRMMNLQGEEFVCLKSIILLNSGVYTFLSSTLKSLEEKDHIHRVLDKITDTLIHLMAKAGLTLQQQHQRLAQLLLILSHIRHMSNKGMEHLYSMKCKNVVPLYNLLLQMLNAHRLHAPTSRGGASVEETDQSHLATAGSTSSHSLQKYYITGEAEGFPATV
The source says:
(§1) Peptide sequences representing each class was fused to the DNA binding domain (DBD) of the yeast transcription factor Ga14. HepG2 cells were then transiently transfected with expression vectors for ERα-VP16 and the Gal4-peptide fusion proteins. In addition, a luciferase reporter construct under the control of 5 copies of a Ga14 upstream enhancer element was also transfected along with a pCMV-β galactosidase vector to normalize for transfection efficiency. Transfection of the Ga14 DBD alone is included as control. Cells were then induced with various ligands as indicated in the figure and assayed for luciferase activity and β galactosidase activity. Normalized response was obtained by dividing the luciferase activity by the β galactosidase activity.
(§2) Three ERα mutants were compared with wild-type ERα. ER-LL was characterized by mutations L540A/L541A. Mutant ER3X was characterized by mutations D538N/E542Q/D545N. Finally, mutant ER-535 STOP was truncated after residue V535. […] Experimental design is the same as in figure 7 except that either (A) ER3X (B) ERLL or (C) ER535-stop was analyzed for binding to conformation sensitive peptides.
(§3) To test whether different LXXLL motif peptides interact within the same region of ER, mammalian two hybrid assays were used. Selected peptide sequences and different ER mutants (ER-LL, ER-3X, ER-535 STOP) were expressed as fusion proteins to Gal4DBD and VP16 (TAD), respectively.

In experiment [2] the target is T2, ERLL (L540A/L541A) (Homo sapiens, UniProt P03372, L540A/L541A).
T2 construct: expressed in transfected cells
T2 sequence (P03372 1-595 L540A/L541A): T1 sequence (P03372 1-595 D538N/E542Q/D545N) with N538D, L540A, L541A, Q542E, N545D
Text: as §1, §2, §3

Experiment [3] has as its target T3, ER535-stop (Homo sapiens, UniProt P03372).
T3 construct: mutant ER-535 STOP was truncated after residue V535; expressed in transfected cells
T3 sequence (P03372 1-534): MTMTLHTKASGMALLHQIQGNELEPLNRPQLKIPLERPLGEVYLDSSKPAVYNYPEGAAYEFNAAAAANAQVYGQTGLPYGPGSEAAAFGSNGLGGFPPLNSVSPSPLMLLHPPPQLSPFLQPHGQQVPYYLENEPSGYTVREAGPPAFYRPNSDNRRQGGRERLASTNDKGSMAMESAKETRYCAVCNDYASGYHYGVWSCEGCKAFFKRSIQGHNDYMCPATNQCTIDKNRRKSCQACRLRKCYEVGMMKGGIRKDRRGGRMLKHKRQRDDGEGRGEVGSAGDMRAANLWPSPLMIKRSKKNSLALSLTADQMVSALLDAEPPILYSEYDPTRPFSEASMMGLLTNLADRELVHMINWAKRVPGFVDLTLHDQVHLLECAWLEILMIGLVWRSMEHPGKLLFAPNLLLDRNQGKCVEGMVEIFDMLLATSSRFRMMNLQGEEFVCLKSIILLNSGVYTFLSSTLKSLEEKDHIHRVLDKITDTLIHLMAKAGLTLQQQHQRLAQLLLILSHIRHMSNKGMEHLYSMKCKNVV
Text: as §1, §2, §3

Turning to SSLTSRDFGSWYASR [α II], the “interaction with the ER3X mutant receptor” value in experiment [1] is given as “largely unaffected”. The “interaction with the ERLL mutant receptor” value in experiment [2] was “largely unaffected”. Moreover, the “interaction with the ER535-stop mutant receptor” value in experiment [3] is recorded as “largely unaffected”.
SSNHQSSRLIELLSR [α/β I]: the “interaction with the ER3X mutant receptor” value in experiment [1] is “retains some ability to engage”. Besides, the “interaction with the ERLL mutant receptor” value in experiment [2] was “unable to interact”. Besides, the “interaction with the ER535-stop mutant receptor” value in experiment [3] is listed as “unable to interact”.
SSPGSREWFKDMLSR [α/β V]: the “interaction with the ER3X mutant receptor” value in experiment [1] is listed as “loss of the tamoxifen specificity”. In addition, the “interaction with the ERLL mutant receptor” value in experiment [2] was “loss of the tamoxifen specificity”. In addition, the “interaction with the ER535-stop mutant receptor” value in experiment [3] is “loss of the tamoxifen specificity”.
With SSWDMHQFFWEGVSR [α/β III], in experiment [1], the “interaction with the ER3X mutant receptor” value was “loss of the tamoxifen specificity”. Further, the “interaction with the ERLL mutant receptor” value in experiment [2] is on record as “loss of the tamoxifen specificity”. In addition, in experiment [3], the “interaction with the ER535-stop mutant receptor” value is reported as “loss of the tamoxifen specificity”.
